± gives the uncertainty stated by the source.
B1: Nanos homolog 2, residues 63 to 115; numbered along this chain, P60321 (parent)
chain: CNFCKHNGESRHVYSSHQLKTPDGVVVCPILRHYVCPVCGATGDQAHTLKYCP

Variants of: B1
Test: abundance fitness (aPCA) (normalised: wild type 0, dead -1); higher = more abundant; growth selection in yeast, the domain comes from the species named
Conditions: Homo sapiens

Abundance fitness: each site, then its substitutions
H17: K -0.6 ± 0.15, Q -0.452 ± 0.083, R -0.644 ± 0.082, C -0.737 ± 0.16, W -1.14 ± 0.21, V -0.769 ± 0.071, I -0.719 ± 0.25, N -0.711 ± 0.23, A -0.626 ± 0.13, P -0.828 ± 0.27, S -0.674 ± 0.1, L -0.756 ± 0.093, G -0.618 ± 0.073, T -0.442 ± 0.082, E -0.512 ± 0.14, F -0.86 ± 0.37
H6: Q 0.011 ± 0.12, S 0.039 ± 0.072, P -0.277 ± 0.12, F -0.147 ± 0.11, A -0.011 ± 0.07, G -0.011 ± 0.056, E -0.027 ± 0.091, R 0.078 ± 0.05, K 0.158 ± 0.059, I -0.062 ± 0.081, D -0.093 ± 0.1, N -0.003 ± 0.11, M -0.047 ± 0.1, T -0.091 ± 0.094, L -0.096 ± 0.088, W -0.451 ± 0.11, C -0.099 ± 0.11
K20: S -0.168 ± 0.081, W -0.569 ± 0.11, E -0.47 ± 0.2, F -0.336 ± 0.14, T -0.118 ± 0.1, Q -0.47 ± 0.16, Y -0.455 ± 0.14, P -0.561 ± 0.097, H -0.101 ± 0.077, N -0.388 ± 0.16, C -0.071 ± 0.089, M -0.368 ± 0.12, L -0.289 ± 0.069, G -0.523 ± 0.12, D -0.118 ± 0.18, A -0.111 ± 0.057, V -0.204 ± 0.06
C4: Y -0.874 ± 0.16, P -0.693 ± 0.067, Q -0.959 ± 0.21, L -1 ± 0.15, N -0.694 ± 0.079, R -0.933 ± 0.051, T -0.879 ± 0.088, S -0.635 ± 0.06, M -1 ± 0.22, V -0.952 ± 0.088
S15: T -0.595 ± 0.072, Y 0.068 ± 0.12, K -0.099 ± 0.079, N -0.034 ± 0.093, C -0.158 ± 0.13, L -0.002 ± 0.071, I -0.258 ± 0.1, G 0.051 ± 0.098, P -0.326 ± 0.13, F -0.135 ± 0.1, V -0.157 ± 0.073, H -0.095 ± 0.11, Q 0.034 ± 0.11, W -0.333 ± 0.1
L19: E -0.013 ± 0.12, M -0.051 ± 0.12, V -0.113 ± 0.078, S -0.186 ± 0.15, N -0.277 ± 0.42, T -0.041 ± 0.13, I -0.149 ± 0.24, R -0.372 ± 0.082, W -0.089 ± 0.16, G -0.292 ± 0.1, Q -0.329 ± 0.22, D -0.172 ± 0.18, P -0.508 ± 0.15, C -0.093 ± 0.15
Y14: E -0.089 ± 0.099, W 0.208 ± 0.12, I -0.18 ± 0.15, Q 0.002 ± 0.11, M -0.274 ± 0.11, H -0.226 ± 0.14, T 0.011 ± 0.081, G -0.109 ± 0.076, R -0.153 ± 0.074, V -0.011 ± 0.085, D -0.213 ± 0.13, C 0.036 ± 0.11, K -0.133 ± 0.087, A -0.165 ± 0.058, L -0.125 ± 0.071
D23: Y -0.119 ± 0.12, Q -0.061 ± 0.072, E 0.076 ± 0.1, W -0.306 ± 0.11, L -0.252 ± 0.088, M -0.234 ± 0.093, T -0.211 ± 0.13, H -0.307 ± 0.21, C -0.189 ± 0.072, P -0.378 ± 0.11, N -0.044 ± 0.096, V -0.22 ± 0.069, I -0.418 ± 0.13, G -0.132 ± 0.084, S -0.141 ± 0.084, F -0.371 ± 0.1, R -0.128 ± 0.071
K5: S -0.313 ± 0.048, N -0.541 ± 0.12, Q -0.281 ± 0.11, A -0.245 ± 0.057, W -0.4 ± 0.054, C -0.249 ± 0.081, L -0.144 ± 0.046, P -0.691 ± 0.048, H -0.3 ± 0.12, M -0.165 ± 0.064, T -0.456 ± 0.097, D -0.401 ± 0.097, E -0.24 ± 0.083, I -0.054 ± 0.11, G -0.699 ± 0.05, F -0.305 ± 0.11, Y -0.145 ± 0.08
Q18: F -0.079 ± 0.069, V 0.065 ± 0.056, K 0.133 ± 0.13, M 0.091 ± 0.11, P -0.183 ± 0.074, Y -0.149 ± 0.14, N 0.097 ± 0.12, G -0.089 ± 0.068, S -0.104 ± 0.082, R -0.114 ± 0.073, D 0.101 ± 0.13, A 0.056 ± 0.1, H 0.081 ± 0.17, I -0.259 ± 0.15, L -0.033 ± 0.072, T -0.145 ± 0.13
E9: Q -0.116 ± 0.14, W -0.495 ± 0.15, R -0.125 ± 0.066, L -0.277 ± 0.079, F -0.259 ± 0.072, C 0.065 ± 0.11, A -0.103 ± 0.061, T -0.154 ± 0.087, D -0.298 ± 0.1, S -0.26 ± 0.089, M -0.116 ± 0.073, P -0.25 ± 0.1, V -0.189 ± 0.061, N -0.153 ± 0.1

From the Human Domainome abundance scans (Beltran et al. 2025)
